Among the targets are PREX1_1, Q8TCU6; MAGI3_4, Q5TCQ9; PARD3B_2, Q8TEW8; MAGI1_5, Q96QZ7; AHNAK2, Q8IVF2; LIMK1, P53667; TJP1_1, Q07157; LMO7, Q8WWI1.
Assay in all cases: holdup assay
Set-up in all cases: key: below the threshold = too weak to quantify, mostly under pKd 3.1 to 4

The next test has as its target T1, TJP3_1, O95049.
T1 sequence (O95049 6-103, limits assumed, looked up): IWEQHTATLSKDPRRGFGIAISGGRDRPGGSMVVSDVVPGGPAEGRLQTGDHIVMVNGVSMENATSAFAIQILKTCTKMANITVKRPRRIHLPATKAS

Another test deals with T2, MPDZ_6, O75970.
T2 sequence (O75970 1003-1099, limits assumed, looked up): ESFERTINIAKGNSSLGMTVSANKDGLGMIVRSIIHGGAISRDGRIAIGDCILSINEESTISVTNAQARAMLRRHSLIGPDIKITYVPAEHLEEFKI

For the next test, the target named is T3, PDZD2_5, O15018.
T3 sequence (O15018 2617-2716, limits assumed, looked up): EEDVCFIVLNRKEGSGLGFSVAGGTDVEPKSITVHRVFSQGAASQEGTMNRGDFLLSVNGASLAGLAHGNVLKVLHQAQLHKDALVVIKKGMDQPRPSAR

For a further test, the target named is T4, MLLT4, P55196.
T4 sequence (P55196 1002-1103, limits assumed, looked up): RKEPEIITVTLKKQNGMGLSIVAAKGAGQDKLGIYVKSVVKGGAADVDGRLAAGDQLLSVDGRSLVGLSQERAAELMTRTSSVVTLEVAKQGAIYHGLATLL

Another test addresses T5, PDLIM3, Q53GG5.
T5 sequence (Q53GG5 1-94, limits assumed, looked up): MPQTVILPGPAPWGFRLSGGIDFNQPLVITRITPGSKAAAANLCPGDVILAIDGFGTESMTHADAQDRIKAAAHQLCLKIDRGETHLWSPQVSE

The target in the next test is T6, MPDZ_13, O75970.
T6 sequence (O75970 1982-2070, limits assumed, looked up): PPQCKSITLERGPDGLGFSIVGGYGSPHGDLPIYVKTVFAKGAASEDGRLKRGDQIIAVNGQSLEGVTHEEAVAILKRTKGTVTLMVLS

The next test deals with T7, PREX2_2, Q70Z35.
T7 sequence (Q70Z35 672-764, limits assumed, looked up): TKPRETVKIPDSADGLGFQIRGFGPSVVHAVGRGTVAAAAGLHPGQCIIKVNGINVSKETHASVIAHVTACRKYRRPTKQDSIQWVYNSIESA

The next test has as its target T8, NHERF1_2, O14745.
T8 sequence (O14745 149-244, limits assumed, looked up): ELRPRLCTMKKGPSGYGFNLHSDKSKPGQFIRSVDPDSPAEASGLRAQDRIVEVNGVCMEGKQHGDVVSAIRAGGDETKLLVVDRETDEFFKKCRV

The next test addresses T9, LNX2_4, Q8N448.
T9 sequence (Q8N448 595-690, limits assumed, looked up): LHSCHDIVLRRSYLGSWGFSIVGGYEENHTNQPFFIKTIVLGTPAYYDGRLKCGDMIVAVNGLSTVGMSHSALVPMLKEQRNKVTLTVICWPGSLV

A further test addresses T10, PDZD2_4, O15018.
T10 sequence (O15018 723-823, limits assumed, looked up): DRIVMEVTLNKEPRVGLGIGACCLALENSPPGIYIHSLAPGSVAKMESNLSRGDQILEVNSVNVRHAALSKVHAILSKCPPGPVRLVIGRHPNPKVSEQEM

Another test deals with T11, SIPA1L3, O60292.
T11 sequence (O60292 961-1052, limits assumed, looked up): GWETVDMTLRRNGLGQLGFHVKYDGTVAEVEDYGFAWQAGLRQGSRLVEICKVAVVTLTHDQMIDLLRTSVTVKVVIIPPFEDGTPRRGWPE

Where [1] appears, read: plain residues with an end cap or a label only (N-terminal biotin on a linker: ttds).
Setting [2] is: plain residues with an end cap or a label only (N-terminal biotin on a linker: none).

The values that follow come from article PMC9482650, “Quantitative fragmentomics allow affinity mapping of interactomes” (Nature Communications, 2022).

AHNAK2, Q8IVF2, sequence (Q8IVF2 108-193): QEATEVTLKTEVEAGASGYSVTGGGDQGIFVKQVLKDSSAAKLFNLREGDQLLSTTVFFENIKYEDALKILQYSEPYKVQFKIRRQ
LIMK1, P53667, sequence (P53667 155-268): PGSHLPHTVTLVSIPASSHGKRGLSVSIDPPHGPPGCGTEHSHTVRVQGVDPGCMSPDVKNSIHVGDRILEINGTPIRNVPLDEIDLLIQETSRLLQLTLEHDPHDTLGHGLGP
PARD3B_2, Q8TEW8, sequence (Q8TEW8 376-471): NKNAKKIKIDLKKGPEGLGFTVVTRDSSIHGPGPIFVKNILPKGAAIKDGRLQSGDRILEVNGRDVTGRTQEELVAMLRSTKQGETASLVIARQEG
MAGI1_5, Q96QZ7, sequence (Q96QZ7 986-1098): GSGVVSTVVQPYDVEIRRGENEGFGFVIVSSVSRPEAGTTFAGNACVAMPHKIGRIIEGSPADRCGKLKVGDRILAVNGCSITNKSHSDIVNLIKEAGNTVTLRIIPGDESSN
PREX1_1, Q8TCU6, sequence (Q8TCU6 608-718): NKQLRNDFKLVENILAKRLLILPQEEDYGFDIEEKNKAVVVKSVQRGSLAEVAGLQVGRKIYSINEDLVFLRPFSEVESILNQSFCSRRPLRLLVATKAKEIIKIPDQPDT
LMO7, Q8WWI1, sequence (Q8WWI1 1037-1138): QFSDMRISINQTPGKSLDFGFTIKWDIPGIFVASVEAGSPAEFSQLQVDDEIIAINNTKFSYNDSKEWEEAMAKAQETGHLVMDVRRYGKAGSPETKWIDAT
MAGI3_4, Q5TCQ9, sequence (Q5TCQ9 716-815): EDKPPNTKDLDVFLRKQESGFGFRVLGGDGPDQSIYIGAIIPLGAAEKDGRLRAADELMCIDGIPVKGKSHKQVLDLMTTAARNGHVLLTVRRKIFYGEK
TJP1_1, Q07157, sequence (Q07157 18-120): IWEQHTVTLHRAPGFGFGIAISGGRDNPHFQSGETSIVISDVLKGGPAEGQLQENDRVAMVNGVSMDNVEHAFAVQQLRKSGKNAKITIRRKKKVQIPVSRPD

B1: CBP, Q92793 (peptide)
chain: TGDTLEKFVEGL
As usually defined, the pKd is −log10 of the Kd, conventionally taken in molar units. B1: the pKd entry with TJP3_1, O95049 (setting [1]) was “below the threshold”; in the test with MPDZ_6, O75970 (setting [1]) it was “below the threshold”; in the test with PDZD2_5, O15018 (setting [1]) it was 3.8; with MLLT4, P55196 (setting [1]) it was “below the threshold”; with PDLIM3, Q53GG5 (setting [1]) it was “below the threshold”; in the test with MPDZ_13, O75970 (setting [1]), “below the threshold”. Moreover, the pKd in the test with PREX1_1, Q8TCU6 (setting [1]) was 4.22; with MAGI3_4, Q5TCQ9 (setting [1]) it was “below the threshold”; with PREX2_2, Q70Z35 (setting [1]) it was “below the threshold”; with PARD3B_2, Q8TEW8 (setting [1]), 3.9; with MAGI1_5, Q96QZ7 (setting [1]), 4.17; with AHNAK2, Q8IVF2 (setting [1]), “below the threshold”. Besides, the pKd in the test with NHERF1_2, O14745 (setting [1]) was 3.96; in the test with LNX2_4, Q8N448 (setting [1]), “below the threshold”; with LIMK1, P53667 (setting [1]), “below the threshold”; in the test with TJP1_1, Q07157 (setting [1]) it was “below the threshold”; in the test with PDZD2_4, O15018 (setting [1]), “below the threshold”.

B2: PTEN, P60484 (peptide)
chain: DEDQHTQITKV
Turning to B2, the pKd entry with TJP3_1, O95049 (setting [1]) was “below the threshold”; in the test with MPDZ_6, O75970 (setting [1]), “below the threshold”; with PDZD2_5, O15018 (setting [1]) it was “below the threshold”; with MLLT4, P55196 (setting [1]), “below the threshold”; with PDLIM3, Q53GG5 (setting [1]) it was “below the threshold”; with PREX1_1, Q8TCU6 (setting [1]) it was “below the threshold”. In addition, the pKd result is “below the threshold” with MAGI3_4, Q5TCQ9 (setting [1]); “below the threshold” with LMO7, Q8WWI1 (setting [1]); “below the threshold” with PREX2_2, Q70Z35 (setting [1]); “below the threshold” with PARD3B_2, Q8TEW8 (setting [1]); 4.53 in the test with MAGI1_5, Q96QZ7 (setting [1]); “below the threshold” with AHNAK2, Q8IVF2 (setting [1]). The pKd entry is “below the threshold” with NHERF1_2, O14745 (setting [1]); “below the threshold” with LNX2_4, Q8N448 (setting [1]); “below the threshold” with LIMK1, P53667 (setting [1]); 3.58 in the test with TJP1_1, Q07157 (setting [1]); “below the threshold” with PDZD2_4, O15018 (setting [1]).

B3: RPS6KA1, Q15418 (peptide)
chain: RRVRKLPSTTL
Consider B3, for which the pKd entry is on record as “below the threshold” with SIPA1L3, O60292 (setting [1]); “below the threshold” in the test with TJP3_1, O95049 (setting [1]); “below the threshold” with MPDZ_6, O75970 (setting [1]); “below the threshold” in the test with PDZD2_5, O15018 (setting [1]); “below the threshold” with MLLT4, P55196 (setting [1]); “below the threshold” with PDLIM3, Q53GG5 (setting [1]). The pKd entry is “below the threshold” in the test with MPDZ_13, O75970 (setting [1]); 3.59 with MAGI3_4, Q5TCQ9 (setting [1]); “below the threshold” in the test with LMO7, Q8WWI1 (setting [1]); “below the threshold” with PARD3B_2, Q8TEW8 (setting [1]); “below the threshold” with MAGI1_5, Q96QZ7 (setting [1]); “below the threshold” in the test with AHNAK2, Q8IVF2 (setting [1]). Moreover, the negative-log Kd (pKd) result with NHERF1_2, O14745 (setting [1]) was “below the threshold”; with LNX2_4, Q8N448 (setting [1]), “below the threshold”; in the test with LIMK1, P53667 (setting [1]), “below the threshold”; in the test with TJP1_1, Q07157 (setting [1]) it was “below the threshold”; with PDZD2_4, O15018 (setting [1]) it was “below the threshold”.

B4: MERS-E, K9N5R3 (peptide)
chain: DSKPPLPPDEWV
Consider B4, for which the pKd was 3.73 with SIPA1L3, O60292 (setting [2]); 4.19 with TJP3_1, O95049 (setting [2]); “below the threshold” in the test with MPDZ_6, O75970 (setting [2]); “below the threshold” with PDZD2_5, O15018 (setting [2]); “below the threshold” with MLLT4, P55196 (setting [2]); “below the threshold” with PDLIM3, Q53GG5 (setting [2]). The pKd result with MPDZ_13, O75970 (setting [2]) is listed as “below the threshold”; in the test with PREX1_1, Q8TCU6 (setting [2]), “below the threshold”; with MAGI3_4, Q5TCQ9 (setting [2]), “below the threshold”; with LMO7, Q8WWI1 (setting [2]), “below the threshold”; in the test with PREX2_2, Q70Z35 (setting [2]), “below the threshold”; in the test with PARD3B_2, Q8TEW8 (setting [2]) it was “below the threshold”. Further, the pKd entry in the test with MAGI1_5, Q96QZ7 (setting [2]) was “below the threshold”; in the test with AHNAK2, Q8IVF2 (setting [2]), “below the threshold”; in the test with NHERF1_2, O14745 (setting [2]), “below the threshold”; in the test with LNX2_4, Q8N448 (setting [2]), 3.73; with LIMK1, P53667 (setting [2]), “below the threshold”; in the test with TJP1_1, Q07157 (setting [2]), “below the threshold”. The pKd result with PDZD2_4, O15018 (setting [2]) is recorded as “below the threshold”.

B5: HTLV1-TAX1, P03409 (peptide)
chain: SEKHFRETEV
With B5, the pKd result with SIPA1L3, O60292 (setting [1]) was “below the threshold”; with TJP3_1, O95049 (setting [1]), “below the threshold”; in the test with MPDZ_6, O75970 (setting [1]), “below the threshold”; with PDZD2_5, O15018 (setting [1]), 4.16; with MLLT4, P55196 (setting [1]) it was 4.08; in the test with PDLIM3, Q53GG5 (setting [1]) it was 4.12. The pKd with MPDZ_13, O75970 (setting [1]) is 4.77; in the test with PREX1_1, Q8TCU6 (setting [1]) it was “below the threshold”; in the test with MAGI3_4, Q5TCQ9 (setting [1]), 3.79; with LMO7, Q8WWI1 (setting [1]), “below the threshold”; with PREX2_2, Q70Z35 (setting [1]) it was “below the threshold”; in the test with PARD3B_2, Q8TEW8 (setting [1]) it was 3.97. Moreover, the pKd was 5.22 with MAGI1_5, Q96QZ7 (setting [1]); “below the threshold” with AHNAK2, Q8IVF2 (setting [1]); “below the threshold” with NHERF1_2, O14745 (setting [1]); “below the threshold” with LNX2_4, Q8N448 (setting [1]); “below the threshold” with TJP1_1, Q07157 (setting [1]); “below the threshold” with PDZD2_4, O15018 (setting [1]).
